Consider 28 sequences from the domain aggregation screens of Martell et al. (2025).

The data set in a line: soluble fraction after stress (log2 fold change); higher = more stays soluble; pooled small domains, quantitative proteomics. To be noted: stress: 50 degC. A digest of the protocol: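 After stress at 50°C, the amount of each protein still soluble was measured. This was done on pooled custom libraries of small protein domains, using high-throughput quantitative proteomics. The figure given is a base-two log fold change and stands for aggregation propensity, with higher values meaning more protein stays in solution.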
For the sequence “HMAAAQILRAAVLRVPAEETMRFVTETPELRRYLGASLGPTAAIVRPGQEQNLAAALQSHGILVEFDE”, the “soluble fraction (log2)” value is 0.0258.

For the sequence “HMAADLIGLEARVTLPLTEDQRGFIETSVRGSLVRRAALSASGRLDRGQRVVILRSEGTTLIVDAL”, the “soluble fraction (log2)” value is -0.844.

Turning to “HMAADRRKAERPLIDGQAVMDRFEVGPGPMVGKALKFLLALKRAEPDLDLAGTEERLDAWWNEQL”, the “soluble fraction (log2)” value was determined as 0.262.

In the case of “HMAAEFERKNGIVYFFHSSEKPHLNYPHVHARYGEDTISISLRDFTVIGSFSSKKKQKEAVEYVKNK”, the “soluble fraction (log2)” value was -0.662.

For “HMAAEPDQQLIKPASDPVLRTMKIEELMKMSEQVKIQMSKAAKNFDYLEAARLRDEHFALENLIKLRS”, the “soluble fraction (log2)” value amounted to 0.108.

With “HMAAGELSGEALIALIERHPMALSALATTFGHSESDLRAFVEPLARQGRLRLFESQGTLFVGGIG”, the “soluble fraction (log2)” value was -0.022.

For the sequence “HMAAHHIILEEREQLSVSGVEEVESFDENTIVMLTNRGTLIVRGEELHIEKLSLDGGDLRVEGSIDSLTYE”, the “soluble fraction (log2)” value was -0.274.

Regarding “HMAAHWANFLEALRAGRARRVLVARGVEGWLLKELERLGAPYTLVPRIELDTLLRTTHHQGIAAEVE”, the “soluble fraction (log2)” value was -0.692.

Regarding “HMAAPELLTVRERQVAALISDGLSNQQIAHRLHLEVTTVKAHIGSIFNRLDMNNRVQIAIWAHDRQLVFS”, the “soluble fraction (log2)” value was -0.266.

On to “HMAAQDIILKRNAEQIEAIVKEITDTDVKYRKFTNTEGVTYSIRRSEVFSITYENGTMDLFA”, for which the “soluble fraction (log2)” value worked out at 0.0231.

Take “HMAAQDLIVKTDASQVEARVLEISPDAVRYKRFSNPDGPTYVLPVAEIRYIRYANGEVEYYA”: the “soluble fraction (log2)” value is -0.0166.

As for “HMAAQLAHVPAVTGRPLAEAQRILADNRLNAQVTQQPVAEPKLDGVVIAQKITEGTRTMRGATVPLIVGKY”, the “soluble fraction (log2)” value turned out to be 0.128.

Regarding “HMAASGTVNSGGDPLRVRADPNTSSQILTKLSDGTQVEVLEQAENGWYKIAHEGISGFVSGEYLVVH”, the “soluble fraction (log2)” value was determined as 0.133.

For “HMAAVAPPVLERIASDLATRFAGTLSPETVDRYVRESYHLLAERAGITRYLPSLTARFAGDRLDA”, the “soluble fraction (log2)” value stood at 0.0481.

On to “HMAAVEDLPVKSVNGKKYHYYTVQPKESLYSLSHKLGISRQEIIKYNPGVEDGLKAYEDLLFPYTPK”, for which the “soluble fraction (log2)” value is 0.105.

As for “HMAAVSTDEEFAALGIPAEWIPVLKSNGFQTVESLKKVAPGALFNQLGGLRKKNKLEIAMPSLDQVKAWLA”, the “soluble fraction (log2)” value is 0.115.

On to “HMADDFISTLFSEGIIIDTEVKQFAERQGSPLQFVRHIASNLPEPRDIITMGEVRSVMREGA”, for which the “soluble fraction (log2)” value was -0.149.

For the sequence “HMADEEEIMVPQVVGKTYDEAKSELENAGFKVEKNEKTSDKASGTVISQSINGGAKKGTSVTLTVSKGN”, the “soluble fraction (log2)” value was found to be 0.149.

Regarding “HMADFYEVLGVERNASSDQIKRAYRKLARELHPDVNLDPVAQNRFKEVTEAYEVLSDPNKRSNFDRG”, the “soluble fraction (log2)” value was determined as 0.209.

Turning to “HMADGEWAEMQRQLTAAGLLVVGRAAQERIQRLSDISPLIEAAQRSNVVMLSERTVDEVLTLVPT”, the “soluble fraction (log2)” value was -0.18.

Regarding “HMADGTSIYAEREVLYVTSPTANTAKVYNVSGALVRTMTLSAGQTVRTALPAGFYVVALGNGNTHKVIV”, the “soluble fraction (log2)” value is -0.889.

Consider “HMADKSLLELPGLDGDKVSALVTAGVRNVNDLADLATDELVEKTGFDEKTAADLIIAARAVVY”, for which the “soluble fraction (log2)” value came to 0.331.

Turning to “HMADLNQTDIDSITKSVGGVEQYKSLMDWAGKTLSQDAIDSFDDLVNTGNKGSIQLAVNGLVAQYQNDN”, the “soluble fraction (log2)” value is 0.0325.

With “HMADMKIHLRPYAHDTNRWHVDIRLMHPTAATEIRKRLVAPAGLSEAQARAWGERQVPTILGKALGVI”, the “soluble fraction (log2)” value is -0.415.

In the case of “HMADNILPAQTDAIKALATENGFSNESLEKYLIENYGTTIYGLSRNQGIQIINLFQSENPPKP”, the “soluble fraction (log2)” value worked out at 0.144.

Turning to “HMADQIIEGILGKEGGYVNNPNDKGGPTRWGITQTTARAYGYSGDMKALPRDTAKAIYLSQYWT”, the “soluble fraction (log2)” value was -0.183.

For “HMADTPQAYIRQMVQEAGADGIMLSTITDRLRARFKDFKVRDLGYAQMRQYMASTGTYDLEKSGRNFRVHL”, the “soluble fraction (log2)” value was -0.935.

Consider “HMADTSLDHLGVLVRHASDVDAWAEFFENRGVTLASQPRTHRDGARSFYVDDPDGNRVQVIYHPPI”, for which the “soluble fraction (log2)” value is -0.498.
